In patent publication US9958461B2, “Detection of protein to protein interactions” (THE GOVERNING COUNCIL OF THE UNIVERSITY OF TORONTO, priority 2013, dated 2018) one finds EGFR-L858R mean, EGFR-Wt mean and Wt/L858R data, which are given here for 7 molecules.

The target in experiment [1] is T1, EGFR-L858R (Homo sapiens, UniProt P00533, L858R).
T1 construct: with the advantage of testing full-length integral membrane proteins; (GGGGS)2 linker-Cub (human ubiquitin aa 35-76)-GAL4(1-147)-mNFkB(364-550) (C); expressed in transfected cells
Description: MaMTH EGFR-interactor screen, lentiviral preys against EGFR-L858R bait (interaction score). It counts as cell-based. Particulars: MaMTH interaction score of prey with EGFR-L858R bait. The gist of the method: (§1)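 5×GAL4UAS-luciferase HEK293T reporter cells were lentivirally infected with preys (MOI ~0.3-0.4) and puromycin-selected ≥48 h. They were then transfected in triplicate with the EGFR bait, and luciferase was read 24 h later. Score is fold-change over averaged negative-control preys; >1 denotes interaction.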

The target of experiment [2] is T2, EGFR-Wt (Homo sapiens, UniProt P00533).
T2 construct: with the advantage of testing full-length integral membrane proteins; (GGGGS)2 linker-Cub (human ubiquitin aa 35-76)-GAL4(1-147)-mNFkB(364-550) (C); expressed in transfected cells
Description: MaMTH EGFR-interactor screen, lentiviral preys against EGFR-wildtype bait (interaction score). It counts as cell-based. Particulars: MaMTH interaction score of prey with EGFR-Wt bait, mean. The gist of the method: as §1

For experiment [3], the system named is EGFR-Wt. The experiment is described as above. It counts as cell-based, human. Particulars: ratio of EGFR-Wt mean to EGFR-L858R mean interaction score. The gist of the method:
as §1

B1: CRKL (protein, UniProt P46109 1-303, looked up)
Crk-like protein: MSSARFDSSDRSAWYMGPVSRQEAQTRLQGQRHGMFLVRDSSTCPGDYVLSVSENSRVSHYIINSLPNRRFKIGDQEFDHLPALLEFYKIHYLDTTTLIEPAPRYPSPPMGSVSAPNLPTAEDNLEYVRTLYDFPGNDAEDLPFKKGEILVIIEKPEEQWWSARNKDGRVGMIPVPYVEKLVRSSPHGKHGNRNSNSYGIPEPAHAYAQPQTTTPLPAVSGSPGAAITPLPSTQNGPVFAKAIQKRVPCAYDKTALALEVGDIVKVTRMNINGQWEGEVNGRKGLFPFTHVKIFDPQNPDENE
As for B1, the EGFR-L858R mean in experiment [1] is reported as 13.65. The molecule further had an EGFR-Wt mean in experiment [2] of 10.25. Besides, in experiment [3], the Wt/L858R came to 0.75.

B2: SH2D3C (protein, UniProt Q8N5H7 1-860, looked up)
SH2 domain-containing protein …: MTEGTKKTSKKFKFFKFKGFGSLSNLPRSFTLRRSSASISRQSHLEPDTFEATQDDMVTVPKSPPAYARSSDMYSHMGTMPRPSIKKAQNSQAARQAQEAGPKPNLVPGGVPDPPGLEAAKEVMVKATGPLEDTPAMEPNPSAVEVDPIRKPEVPTGDVEEERPPRDVHSERAAGEPEAGSDYVKFSKEKYILDSSPEKLHKELEEELKLSSTDLRSHAWYHGRIPREVSETLVQRNGDFLIRDSLTSLGDYVLTCRWRNQALHFKINKVVVKAGESYTHIQYLFEQESFDHVPALVRYHVGSRKAVSEQSGAIIYCPVNRTFPLRYLEASYGLGQGSSKPASPVSPSGPKGSHMKRRSVTMTDGLTADKVTRSDGCPTSTSLPRPRDSIRSCALSMDQIPDLHSPMSPISESPSSPAYSTVTRVHAAPAAPSATALPASPVARRSSEPQLCPGSAPKTHGESDKGPHTSPSHTLGKASPSPSLSSYSDPDSGHYCQLQPPVRGSREWAATETSSQQARSYGERLKELSENGAPEGDWGKTFTVPIVEVTSSFNPATFQSLLIPRDNRPLEVGLLRKVKELLAEVDARTLARHVTKVDCLVARILGVTKEMQTLMGVRWGMELLTLPHGRQLRLDLLERFHTMSIMLAVDILGCTGSAEERAALLHKTIQLAAELRGTMGNMFSFAAVMGALDMAQISRLEQTWVTLRQRHTEGAILYEKKLKPFLKSLNEGKEGPPLSNTTFPHVLPLITLLECDSAPPEGPEPWGSTEHGVEVVLAHLEAARTVAHHGGLYHTNAEVKLQGFQARPELLEVFSTEFQMRLLWGSQGASSSQARRYEKFDKVLTALSHKLEPAVRSSEL
Take B2: the EGFR-L858R mean in experiment [1] turned out to be 2.92. Moreover, the EGFR-Wt mean in experiment [2] is listed as 2.33. The Wt/L858R in experiment [3] worked out at 0.80.

B3: WASL (protein, UniProt O00401 2-505, looked up)
Actin nucleation-promoting …: SSVQQQPPPPRRVTNVGSLLLTPQENESLFTFLGKKCVTMSSAVVQLYAADRNCMWSKKCSGVACLVKDNPQRSYFLRIFDIKDGKLLWEQELYNNFVYNSPRGYFHTFAGDTCQVALNFANEEEAKKFRKAVTDLLGRRQRKSEKRRDPPNGPNLPMATVDIKNPEITTNRFYGPQVNNISHTKEKKKGKAKKKRLTKADIGTPSNFQHIGHVGWDPNTGFDLNNLDPELKNLFDMCGISEAQLKDRETSKVIYDFIEKTGGVEAVKNELRRQAPPPPPPSRGGPPPPPPPPHNSGPPPPPARGRGAPPPPPSRAPTAAPPPPPPSRPSVAVPPPPPNRMYPPPPPALPSSAPSGPPPPPPSVLGVGPVAPPPPPPPPPPPGPPPPPGLPSDGDHQVPTTAGNKAALLDQIREGAQLKKVEQNSRPVSCSGRDALLDQIRQGIQLKSVADGQESTPPTPAPTSGIVGALMEVMQKRSKAIHSSDEDEDEDDEEDFEDDDEWED
In experiment [1], B3 registered an EGFR-L858R mean of 1.93. In experiment [2], the EGFR-Wt mean amounted to 1.41. Besides, in experiment [3], the Wt/L858R came out at 0.73.

B4: ANKS1A (protein, UniProt Q92625 2-1134, looked up)
Ankyrin repeat and SAM …: GKEQELLEAARTGHLPAVEKLLSGKRLSSGFGGGGGGGSGGGGGGSGGGGGGLGSSSHPLSSLLSMWRGPNVNCVDSTGYTPLHHAALNGHKDVVEVLLRNDALTNVADSKGCYPLHLAAWKGDAQIVRLLIHQGPSHTRVNEQNNDNETALHCAAQYGHTEVVKVLLEELTDPTMRNNKFETPLDLAALYGRLEVVKMLLNAHPNLLSCNTKKHTPLHLAARNGHKAVVQVLLDAGMDSNYQTEMGSALHEAALFGKTDVVQILLAAGTDVNIKDNHGLTALDTVRELPSQKSQQIAALIEDHMTGKRSTKEVDKTPPPQPPLISSMDSISQKSQGDVEKAVTELIIDFDANAEEEGPYEALYNAISCHSLDSMASGRSSDQDSTNKEAEAAGVKPAGVRPRERPPPPAKPPPDEEEEDHIDKKYFPLTASEVLSMRPRIHGSAAREEDEHPYELLLTAETKKVVLVDGKTKDHRRSSSSRSQDSAEGQDGQVPEQFSGLLHGSSPVCEVGQDPFQLLCTAGQSHPDGSPQQGACHKASMQLEETGVHAPGASQPSALDQSKRVGYLTGLPTTNSRSHPETLTHTASPHPGGAEEGDRSGARSRAPPTSKPKAELKLSRSLSKSDSDLLTCSPTEDATMGSRSESLSNCSIGKKRLEKSPSFASEWDEIEKIMSSIGEGIDFSQERQKISGLRTLEQSVGEWLESIGLQQYESKLLLNGFDDVHFLGSNVMEEQDLRDIGISDPQHRRKLLQAARSLPKVKALGYDGNSPPSVPSWLDSLGLQDYVHSFLSSGYSSIDTVKNLWELELVNVLKVQLLGHRKRIIASLADRPYEEPPQKPPRFSQLRCQDLLSQTSSPLSQNDSCTGRSADLLLPPGDTGRRRHDSLHDPAAPSRAERFRIQEEHREAKLTLRPPSLAAPYAPVQSWQHQPEKLIFESCGYEANYLGSMLIKDLRGTESTQDACAKMRKSTEHMKKIPTIILSITYKGVKFIDASNKNVIAEHEIRNISCAAQDPEDLCTFAYITKDLQTSHHYCHVFSTVDVNLTYEIILTLGQAFEVAYQLALQAQKSRATGASAAEMIETKSSKPVPKPRVGVRKSALEPPDMDQDAQSHASVSWVVDPKPDSKRSLSTN
In experiment [1], B4 yielded an EGFR-L858R mean of 11.76. Moreover, the EGFR-Wt mean in experiment [2] was determined as 9.27. Further, the Wt/L858R in experiment [3] worked out at 0.79.

B5: MED28 (protein, UniProt Q9H204 1-178, looked up)
Mediator of RNA polymerase II …: MAAPLGGMFSGQPPGPPQAPPGLPGQASLLQAAPGAPRPSSSTLVDELESSFEACFASLVSQDYVNGTDQEEIRTGVDQCIQKFLDIARQTECFFLQKRLQLSVQKPEQVIKEDVSELRNELQRKDALVQKHLTKLRHWQQVLEDINVQHKKPADIPQGSLAYLEQASANIPAPLKPT
In experiment [1], B5 registered an EGFR-L858R mean of 1.14. For the same molecule, the EGFR-Wt mean in experiment [2] came to 0.87. Moreover, in experiment [3], the Wt/L858R was determined as 0.76.

B6: BCAR3 (protein, UniProt O75815 2-825, looked up)
Breast cancer anti-estrogen …: AAGKFASLPRNMPVNHQFPLASSMDLLSSRSPLAEHRPDAYQDVSIHGTLPRKKKGPPPIRSCDDFSHMGTLPHSKSPRQNSPVTQDGIQESPWQDRHGETFTFRDPHLLDPTVEYVKFSKERHIMDRTPEKLKKELEEELLLSSEDLRSHAWYHGRIPRQVSENLVQRDGDFLVRDSLSSPGNFVLTCQWKNLAQHFKINRTVLRLSEAYSRVQYQFEMESFDSIPGLVRCYVGNRRPISQQSGAIIFQPINRTVPLRCLEEHYGTSPGQAREGSLTKGRPDVAKRLSLTMGGVQAREQNLPRGNLLRNKEKSGSQPACLDHMQDRRALSLKAHQSESYLPIGCKLPPQSSGVDTSPCPNSPVFRTGSEPALSPAVVRRVSSDARAGEALRGSDSQLCPKPPPKPCKVPFLKVPSSPSAWLNSEANYCELNPAFATGCGRGAKLPSCAQGSHTELLTAKQNEAPGPRNSGVNYLILDDDDRERPWEPAAAQMEKGQWDKGEFVTPLLETVSSFRPNEFESKFLPPENKPLETAMLKRAKELFTNNDPKVIAQHVLSMDCRVARILGVSEEMRRNMGVSSGLELITLPHGHQLRLDIIERHNTMAIGIAVDILGCTGTLEDRAATLSKIIQVAVELKDSMGDLYSFSALMKALEMPQITRLEKTWTALRHQYTQTAILYEKQLKPFSKLLHEGRESTCVPPNNVSVPLLMPLVTLMERQAVTFEGTDMWEKNDQSCEIMLNHLATARFMAEAADSYRMNAERILAGFQPDEEMNEICKTEFQMRLLWGSKGAQVNQTERYEKFNQILTALSRKLEPPPVKQAEL
B6 displayed an EGFR-L858R mean in experiment [1] of 1.06. This molecule gave an EGFR-Wt mean in experiment [2] of 0.79. Further, the Wt/L858R in experiment [3] was 0.75.

B7: SOS2 (protein, UniProt Q07890 1-1332, looked up)
Son of sevenless homolog 2: MQQAPQPYEFFSEENSPKWRGLLVSALRKVQEQVHPTLSANEESLYYIEELIFQLLNKLCMAQPRTVQDVEERVQKTFPHPIDKWAIADAQSAIEKRKRRNPLLLPVDKIHPSLKEVLGYKVDYHVSLYIVAVLEYISADILKLAGNYVFNIRHYEISQQDIKVSMCADKVLMDMFDQDDIGLVSLCEDEPSSSGELNYYDLVRTEIAEERQYLRELNMIIKVFREAFLSDRKLFKPSDIEKIFSNISDIHELTVKLLGLIEDTVEMTDESSPHPLAGSCFEDLAEEQAFDPYETLSQDILSPEFHEHFNKLMARPAVALHFQSIADGFKEAVRYVLPRLMLVPVYHCWHYFELLKQLKACSEEQEDRECLNQAITALMNLQGSMDRIYKQYSPRRRPGDPVCPFYSHQLRSKHLAIKKMNEIQKNIDGWEGKDIGQCCNEFIMEGPLTRIGAKHERHIFLFDGLMISCKPNHGQTRLPGYSSAEYRLKEKFVMRKIQICDKEDTCEHKHAFELVSKDENSIIFAAKSAEEKNNWMAALISLHYRSTLDRMLDSVLLKEENEQPLRLPSPEVYRFVVKDSEENIVFEDNLQSRSGIPIIKGGTVVKLIERLTYHMYADPNFVRTFLTTYRSFCKPQELLSLLIERFEIPEPEPTDADKLAIEKGEQPISADLKRFRKEYVQPVQLRILNVFRHWVEHHFYDFERDLELLERLESFISSVRGKAMKKWVESIAKIIRRKKQAQANGVSHNITFESPPPPIEWHISKPGQFETFDLMTLHPIEIARQLTLLESDLYRKVQPSELVGSVWTKEDKEINSPNLLKMIRHTTNLTLWFEKCIVEAENFEERVAVLSRIIEILQVFQDLNNFNGVLEIVSAVNSVSVYRLDHTFEALQERKRKILDEAVELSQDHFKKYLVKLKSINPPCVPFFGIYLTNILKTEEGNNDFLKKKGKDLINFSKRRKVAEITGEIQQYQNQPYCLRIEPDMRRFFENLNPMGSASEKEFTDYLFNKSLEIEPRNCKQPPRFPRKSTFSLKSPGIRPNTGRHGSTSGTLRGHPTPLEREPCKISFSRIAETELESTVSAPTSPNTPSTPPVSASSDLSVFLDVDLNSSCGSNSIFAPVLLPHSKSFFSSCGSLHKLSEEPLIPPPLPPRKKFDHDASNSKGNMKSDDDPPAIPPRQPPPPKVKPRVPVPTGAFDGPLHSPPPPPPRDPLPDTPPPVPLRPPEHFINCPFNLQPPPLGHLHRDSDWLRDISTCPNSPSTPPSTPSPRVPRRCYVLSSSQNNLAHPPAPPVPPRQNSSPHLPKLPPKTYKRELSHPPLYRLPLLENAETPQ
In turn, B7 had an EGFR-L858R mean in experiment [1] of 1.83. The EGFR-Wt mean in experiment [2] is 0.28. Further, the Wt/L858R in experiment [3] worked out at 0.15.
